{"source": "patent US6869925", "about": "(Amgen, dated 2005)", "key": {"[1]": {"biological_target": "SLPI binding sites on U937 cells (human monocyte cell line; intact cells, PMA-induced cells or plasma membranes) (human)", "assay": "125I-SLPI saturation binding, intact U937 cells, *SLPI at 320 pM"}, "[2]": {"biological_target": "SLPI binding sites on U937 cells (human monocyte cell line; intact cells, PMA-induced cells or plasma membranes) (human)", "assay": "125I-SLPI saturation binding, intact U937 cells, *SLPI at 2560 pM"}, "[3]": {"biological_target": "SLPI binding sites on HuT78 cells (human T cell line) (human)", "assay": "125I-SLPI saturation binding, intact HuT78 cells, *SLPI at 1280 pM"}, "[4]": {"biological_target": "SLPI binding sites on HuT78 cells (human T cell line) (human)", "assay": "competition with 125I-SLPI, intact HuT78 cells, cold SLPI at 84 nM"}, "[5]": {"biological_target": "SLPI binding sites on U937 cells (human monocyte cell line; intact cells, PMA-induced cells or plasma membranes) (human)", "assay": "competition with 125I-SLPI, intact U937 cells, Kd by Cheng-Prusoff"}, "[6]": {"biological_target": "SLPI binding sites on U937 cells (human monocyte cell line; intact cells, PMA-induced cells or plasma membranes) (human)", "assay": "competition with 125I-SLPI, intact U937 cells, competitor at 84 nM"}, "[7]": {"biological_target": "SLPI binding sites on HuT78 cells (human T cell line) (human)", "assay": "competition with 125I-SLPI, intact HuT78 cells, competitor at 0 nM"}, "[8]": {"biological_target": "SLPI binding sites on HuT78 cells (human T cell line) (human)", "assay": "competition with 125I-SLPI, intact HuT78 cells, cold SLPI at 270 nM"}, "[9]": {"biological_target": "SLPI binding sites on U937 cells (human monocyte cell line; intact cells, PMA-induced cells or plasma membranes) (human)", "assay": "competition with 125I-SLPI, intact U937 cells, cold SLPI at 0.00 nM"}, "[10]": {"biological_target": "SLPI binding sites on U937 cells (human monocyte cell line; intact cells, PMA-induced cells or plasma membranes) (human)", "assay": "competition with 125I-SLPI, intact U937 cells, competitor at 2.6 nM"}, "[11]": {"biological_target": "SLPI binding sites on HuT78 cells (human T cell line) (human)", "assay": "125I-SLPI saturation binding, intact HuT78 cells, *SLPI at 20,480 pM"}, "[12]": {"biological_target": "SLPI binding sites on U937 cells (human monocyte cell line; intact cells, PMA-induced cells or plasma membranes) (human)", "assay": "125I-SLPI saturation binding, U937 cells plus PMA, *SLPI at 1,280 pM"}, "[13]": {"biological_target": "SLPI binding sites on U937 cells (human monocyte cell line; intact cells, PMA-induced cells or plasma membranes) (human)", "assay": "125I-SLPI saturation binding, U937 cells plus PMA, *SLPI at 2,560 pM"}, "[14]": {"biological_target": "SLPI binding sites on HuT78 cells (human T cell line) (human)", "assay": "competition with 125I-SLPI, intact HuT78 cells, cold SLPI at 0.00 nM"}, "[15]": {"biological_target": "SLPI binding sites on HuT78 cells (human T cell line) (human)", "assay": "competition with 125I-SLPI, intact HuT78 cells, cold SLPI at 0.25 nM"}}}
{"substance": "serine leukocyte protease inhibitor (SLPI) (from UniProt P03973 26-132)", "values": [{"measurement": "bound *SLPI (pM)", "setting": "[1]", "result": 65.7, "unit": "pM"}, {"measurement": "bound per free", "setting": "[1]", "result": 0.258}, {"measurement": "sites bound per cell (sites per cell)", "setting": "[1]", "result": 3960}, {"measurement": "specific cpm", "setting": "[1]", "result": 2620, "unit": "cpm"}, {"measurement": "bound *SLPI (pM)", "setting": "[2]", "result": 339, "unit": "pM"}, {"measurement": "bound per free", "setting": "[2]", "result": 0.153}, {"measurement": "sites bound per cell (sites per cell)", "setting": "[2]", "result": 20400}, {"measurement": "specific cpm", "setting": "[2]", "result": 13500, "unit": "cpm"}, {"measurement": "bound pM", "setting": "[3]", "result": 7.6, "unit": "pM"}, {"measurement": "bound per free", "setting": "[3]", "result": 0.0059}, {"measurement": "sites bound per cell (sites per cell)", "setting": "[3]", "result": 458}, {"measurement": "specific cpm", "setting": "[3]", "result": 303, "unit": "cpm"}, {"measurement": "% *SLPI BOUND", "setting": "[4]", "result": 9.3, "unit": "%"}, {"measurement": "Kd", "setting": "[5]", "result": 2, "unit": "nM"}, {"measurement": "% *SLPI BOUND", "setting": "[6]", "result": 7, "unit": "%"}, {"measurement": "% *SLPI BOUND", "setting": "[7]", "result": 100, "unit": "%"}, {"measurement": "% *SLPI BOUND", "setting": "[8]", "result": 0, "unit": "%"}, {"measurement": "% *SLPI BOUND", "setting": "[9]", "result": 94, "unit": "%"}, {"measurement": "% *SLPI BOUND", "setting": "[10]", "result": 46, "unit": "%"}, {"measurement": "bound pM", "setting": "[11]", "result": 30.3, "unit": "pM"}, {"measurement": "bound per free", "setting": "[11]", "result": 0.0015}, {"measurement": "sites bound per cell (sites per cell)", "setting": "[11]", "result": 1820}, {"measurement": "specific cpm", "setting": "[11]", "result": 1210, "unit": "cpm"}, {"measurement": "bound pM", "setting": "[12]", "result": 130, "unit": "pM"}, {"measurement": "bound per free", "setting": "[12]", "result": 0.113}, {"measurement": "sites bound per cell (sites per cell)", "setting": "[12]", "result": 7830}, {"measurement": "specific cpm", "setting": "[12]", "result": 1390, "unit": "cpm"}, {"measurement": "bound pM", "setting": "[13]", "result": 215, "unit": "pM"}, {"measurement": "bound per free", "setting": "[13]", "result": 0.092}, {"measurement": "sites bound per cell (sites per cell)", "setting": "[13]", "result": 12900}, {"measurement": "specific cpm", "setting": "[13]", "result": 2300, "unit": "cpm"}, {"measurement": "% *SLPI BOUND", "setting": "[14]", "result": 100, "unit": "%"}, {"measurement": "% *SLPI BOUND", "setting": "[15]", "result": 69, "unit": "%"}]}
